# According to patent US20230183753A1, “Methods of in Vitro Cell Delivery” (Intellia Therapeutics, Inc., priority 2020, published 2023):
# Oligonucleotides are written 5' to 3', each unit as a sugar letter and its base; * is a phosphorothioate linkage, no mark a phosphodiester; rarer units and linkages stand in square brackets, end groups in braces. Plain capitals give the bases only. m = 2'-O-methyl; r = 2'-OH (RNA)
# B1: G018117: guide targeting CIITA (SEQ ID NO: 714) (nucleic acid)
# guide: mG*mC*mG*rUrCrCrArCrArUrCrCrUrGrCrArArGrGrGrGrUrUrUrUrArGrAmGmCmUmAmGmAmAmAmUmAmGmCrArArGrUrUrArArArArUrArArGrGrCrUrArGrUrCrCrGrUrUrArUrCrAmAmCmUmUmGmAmAmAmAmAmGmUmGmGmCmAmCmCmGmAmGmUmCmGmGmUmGmCmU*mU*mU*mU
# Experiments:
# B2M, CD3, MHC II = test: Flow cytometry of antigen negative T cells (B2M, CD3, MHC II) after BC22n or Cas9 editing, Example 16A; format: cell-based, human
# Description: Cells were subsequently washed, processed on a Cytoflex instrument (Beckman Coulter) and analyzed using the FlowJo software package. T cells were gated based on size, shape, viability, and antigen expression.
# [1] = test system: B2M, TRAC, TRBC1/2, CIITA; test: NGS editing profile of T cells with BC22n or Cas9 mRNA, single or four guides, LNP titration, Example 16A; format: cell-based, human; details: LNP;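 further: activated T cells exposed to LNPs 72 h after activation, kept at 37 °C, harvested on day 10 post activation, editing measured by NGS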
# Protocol: Cells were expanded in T cell basal media for 72 hours prior to LNP transfection.
# LNPs were mixed to fixed total mRNA weight ratios of 6:3:2 for editor mRNA, guide RNA, and UGI mRNA respectively as described in Table 12. […] LNP mixtures were incubated for 5 minutes at 37° C. in T cell basal media substituting 6% cynomolgus monkey serum (Bioreclamation IVT, Cat. CYN220760) for fetal bovine serum.
# T cells were incubated at 37° C. with 5% CO2 for the duration of the experiment.
# In total, T cells were exposed to 6 different LNPs simultaneously (editor mRNA, UGI mRNA, 4 guides).
# [2] = multiple guide delivery (four guides simultaneously), locus of the guide assayed, editor BC22n, total RNA 8.6 ng
# [3] = multiple guide delivery (four guides simultaneously), locus of the guide assayed, editor BC22n, total RNA 17.2 ng
# [4] = multiple guide delivery (four guides simultaneously), locus of the guide assayed, editor BC22n, total RNA 34.4 ng
# [5] = multiple guide delivery (four guides simultaneously), locus of the guide assayed, editor BC22n, total RNA 68.8 ng
# [6] = multiple guide delivery (four guides simultaneously), locus of the guide assayed, editor BC22n, total RNA 137.5 ng
# [7] = multiple guide delivery (four guides simultaneously), locus of the guide assayed, editor BC22n, total RNA 275.0 ng
# [8] = multiple guide delivery (four guides simultaneously), locus of the guide assayed, editor BC22n, total RNA 550.0 ng
# [9] = multiple guide delivery (four guides simultaneously), locus of the guide assayed, editor Cas9, total RNA 8.6 ng
# [10] = multiple guide delivery (four guides simultaneously), locus of the guide assayed, editor Cas9, total RNA 17.2 ng
# [11] = multiple guide delivery (four guides simultaneously), locus of the guide assayed, editor Cas9, total RNA 34.4 ng
# [12] = multiple guide delivery (four guides simultaneously), locus of the guide assayed, editor Cas9, total RNA 68.8 ng
# [13] = multiple guide delivery (four guides simultaneously), locus of the guide assayed, editor Cas9, total RNA 137.5 ng
# [14] = multiple guide delivery (four guides simultaneously), locus of the guide assayed, editor Cas9, total RNA 275.0 ng
# [15] = multiple guide delivery (four guides simultaneously), locus of the guide assayed, editor Cas9, total RNA 550.0 ng
# [16] = single guide delivery, editor BC22n, total RNA 8.6 ng
# [17] = single guide delivery, editor BC22n, total RNA 17.2 ng
# [18] = single guide delivery, editor BC22n, total RNA 34.4 ng
# [19] = single guide delivery, editor BC22n, total RNA 68.8 ng
# [20] = single guide delivery, editor BC22n, total RNA 137.5 ng
# [21] = single guide delivery, editor BC22n, total RNA 275.0 ng
# [22] = single guide delivery, editor BC22n, total RNA 550.0 ng
# [23] = single guide delivery, editor Cas9, total RNA 8.6 ng
# [24] = single guide delivery, editor Cas9, total RNA 17.2 ng
# [25] = single guide delivery, editor Cas9, total RNA 34.4 ng
# [26] = single guide delivery, editor Cas9, total RNA 68.8 ng
# [27] = single guide delivery, editor Cas9, total RNA 137.5 ng
# [28] = single guide delivery, editor Cas9, total RNA 275.0 ng
# [29] = single guide delivery, editor Cas9, total RNA 550.0 ng
molecule,measurement,setting,value
B1,"percent cells negative for antigen, HLA DR DP DQ neg, Mean %","B2M, CD3, MHC II; editor BC22n, total RNA 8.6 ng",41.6%
same,"percent cells negative for antigen, HLA DR DP DQ neg, Mean %","B2M, CD3, MHC II; editor BC22n, total RNA 17.2 ng",49.9%
same,"percent cells negative for antigen, HLA DR DP DQ neg, Mean %","B2M, CD3, MHC II; editor BC22n, total RNA 34.4 ng",65.8%
same,"percent cells negative for antigen, HLA DR DP DQ neg, Mean %","B2M, CD3, MHC II; editor BC22n, total RNA 68.8 ng",74.5%
same,"percent cells negative for antigen, HLA DR DP DQ neg, Mean %","B2M, CD3, MHC II; editor BC22n, total RNA 137.5 ng",85.2%
same,"percent cells negative for antigen, HLA DR DP DQ neg, Mean %","B2M, CD3, MHC II; editor BC22n, total RNA 275.0 ng",92.5%
same,"percent cells negative for antigen, HLA DR DP DQ neg, Mean %","B2M, CD3, MHC II; editor BC22n, total RNA 550.0 ng",95.7%
same,"percent cells negative for antigen, HLA DR DP DQ neg, Mean %","B2M, CD3, MHC II; editor Cas9, total RNA 8.6 ng",34.2%
same,"percent cells negative for antigen, HLA DR DP DQ neg, Mean %","B2M, CD3, MHC II; editor Cas9, total RNA 17.2 ng",36.2%
same,"percent cells negative for antigen, HLA DR DP DQ neg, Mean %","B2M, CD3, MHC II; editor Cas9, total RNA 34.4 ng",40.7%
same,"percent cells negative for antigen, HLA DR DP DQ neg, Mean %","B2M, CD3, MHC II; editor Cas9, total RNA 68.8 ng",48.9%
same,"percent cells negative for antigen, HLA DR DP DQ neg, Mean %","B2M, CD3, MHC II; editor Cas9, total RNA 137.5 ng",55.5%
same,"percent cells negative for antigen, HLA DR DP DQ neg, Mean %","B2M, CD3, MHC II; editor Cas9, total RNA 275.0 ng",65.6%
same,"percent cells negative for antigen, HLA DR DP DQ neg, Mean %","B2M, CD3, MHC II; editor Cas9, total RNA 550.0 ng",72.0%
same,C-to-A/G % mean,[1]; [2],3.1%
same,C-to-T % mean,[1]; [2],4.6%
same,Indel % mean,[1]; [2],0.8%
same,C-to-A/G % mean,[1]; [3],2.9%
same,C-to-T % mean,[1]; [3],10.5%
same,Indel % mean,[1]; [3],1.1%
same,C-to-A/G % mean,[1]; [4],2.9%
same,C-to-T % mean,[1]; [4],18.8%
same,Indel % mean,[1]; [4],1.6%
same,C-to-A/G % mean,[1]; [5],2.7%
same,C-to-T % mean,[1]; [5],35.1%
same,Indel % mean,[1]; [5],1.6%
same,C-to-A/G % mean,[1]; [6],2.9%
same,C-to-T % mean,[1]; [6],52.9%
same,Indel % mean,[1]; [6],1.5%
same,C-to-A/G % mean,[1]; [7],2.5%
same,C-to-T % mean,[1]; [7],71.9%
same,Indel % mean,[1]; [7],1.3%
same,C-to-A/G % mean,[1]; [8],2.6%
same,C-to-T % mean,[1]; [8],81.1%
same,Indel % mean,[1]; [8],1.1%
same,C-to-A/G % mean,[1]; [9],2.6%
same,C-to-T % mean,[1]; [9],0.2%
same,Indel % mean,[1]; [9],1.4%
same,C-to-A/G % mean,[1]; [10],2.5%
same,C-to-T % mean,[1]; [10],0.2%
same,Indel % mean,[1]; [10],2.1%
same,C-to-A/G % mean,[1]; [11],2.5%
same,C-to-T % mean,[1]; [11],0.3%
same,Indel % mean,[1]; [11],3.9%
same,C-to-A/G % mean,[1]; [12],2.5%
same,C-to-T % mean,[1]; [12],0.2%
same,Indel % mean,[1]; [12],7.7%
same,C-to-A/G % mean,[1]; [13],2.2%
same,C-to-T % mean,[1]; [13],0.2%
same,Indel % mean,[1]; [13],13.3%
same,C-to-A/G % mean,[1]; [14],1.9%
same,C-to-T % mean,[1]; [14],0.1%
same,Indel % mean,[1]; [14],26.7%
same,C-to-A/G % mean,[1]; [15],1.7%
same,C-to-T % mean,[1]; [15],0.1%
same,Indel % mean,[1]; [15],42.3%
same,C-to-A/G % mean,[1]; [16],3.8%
same,C-to-T % mean,[1]; [16],14.5%
same,Indel % mean,[1]; [16],3.5%
same,C-to-A/G % mean,[1]; [17],3.5%
same,C-to-T % mean,[1]; [17],28.1%
same,Indel % mean,[1]; [17],3.9%
same,C-to-A/G % mean,[1]; [18],3.3%
same,C-to-T % mean,[1]; [18],45.9%
same,Indel % mean,[1]; [18],3.6%
same,C-to-A/G % mean,[1]; [19],3.6%
same,C-to-T % mean,[1]; [19],62.8%
same,Indel % mean,[1]; [19],3.7%
same,C-to-A/G % mean,[1]; [20],2.7%
same,C-to-T % mean,[1]; [20],78.9%
same,Indel % mean,[1]; [20],2.7%
same,C-to-A/G % mean,[1]; [21],2.6%
same,C-to-T % mean,[1]; [21],86.3%
same,Indel % mean,[1]; [21],2.0%
same,C-to-A/G % mean,[1]; [22],2.6%
same,C-to-T % mean,[1]; [22],92.3%
same,Indel % mean,[1]; [22],1.1%
same,C-to-A/G % mean,[1]; [23],2.5%
same,C-to-T % mean,[1]; [23],0.3%
same,Indel % mean,[1]; [23],6.0%
same,C-to-A/G % mean,[1]; [24],2.4%
same,C-to-T % mean,[1]; [24],0.2%
same,Indel % mean,[1]; [24],11.2%
same,C-to-A/G % mean,[1]; [25],2.1%
same,C-to-T % mean,[1]; [25],0.2%
same,Indel % mean,[1]; [25],20.8%
same,C-to-A/G % mean,[1]; [26],1.9%
same,C-to-T % mean,[1]; [26],0.2%
same,Indel % mean,[1]; [26],33.2%
same,C-to-A/G % mean,[1]; [27],1.3%
same,C-to-T % mean,[1]; [27],0.1%
same,Indel % mean,[1]; [27],51.2%
same,C-to-A/G % mean,[1]; [28],0.9%
same,C-to-T % mean,[1]; [28],0.1%
same,Indel % mean,[1]; [28],64.5%
same,C-to-A/G % mean,[1]; [29],0.6%
same,C-to-T % mean,[1]; [29],0.1%
same,Indel % mean,[1]; [29],78.4%
